Results reported in US20250340613A1 (JOINT STOCK COMPANY BIOCAD, published 2025).

B1: 02-005, bivalent bispecific chimeric antibody that specifically binds to PD1 and CD20 (bispecific antibody, human IgG1, kappa, L234A L235A)
heavy 1: EVQLVESGGGLVQPGGSLRLSCAASGYTFTSYNMHWVRQAPGKGLEWVGAIYPGNGDTSYNQKFKGRFTISVDKSKNTLYLQMNSLRAEDTAVYYCARVVYYSNSYWYFDVWGQGTLVTVSSASTKGPSVFPLAPSSKSTSGGTAALGCLVKDYFPEPVTVSWNSGALTSGVHTFPAVLQSSGLYSLSSVVTVPSSSLGTQTYICNVNHKPSNTKVDKRVEPKSCDKTHTCPPCPAPEAAGGPSVFLFPPKPKDTLYITREPEVTCVVVDVSHEDPEVKFNWYVDGVEVHNAKTKPREEQYNSTYRVVSVLTVLHQDWLNGKEYKCKVSNKALPAPIEKTISKAKGQPREPQVCTLPPSRDELTKNQVSLSCAVKGFYPSDIAVEWESNGQPENNYKTTPPVLDSDGSFFLVSKLTVDKSRWQQGNVFSCSVMHEALHNHYTQKSLSLSPGK
light 1: DIQMTQSPSSLSASVGDRVTITCRASSSVSYMHWYQQKPGKAPKPLIYAPSNLASGVPSRFSGSGSGTDFTLTISSLQPEDFATYYCQQWSFNPPTFGQGTKVEIKRTVAAPSVFIFPPSDEQLKSGTASVVCLLNNFYPREAKVQWKVDNALQSGNSQESVTEQDSKDSTYSLSSTLTLSKADYEKHKVYACEVTHQGLSSPVTKSFNRGEC
heavy 2: not shown
light 2: QPVLTQPLSVSVALGQTARITCGGNNIGSKNVHWYQQKPGQAPVLVIYRDSNRPSGIPERFSGSNSGNTATLTISRAQAGDEADYYCQVWDSSTAVFGTGTKLTVLQQRQVKPEAWLSSGPSPGPGRLQLVCHVSGFYPKPVWVMWMRGEQEQQGTQLGDILPNANWTWYLRATLDVADGEAAGLSCRVKHSSLEGQDIILYWRGSC
notes: Produced in CHO cells
B2: 02-004, bivalent bispecific chimeric antibody that specifically binds to PD1 and CD20 (bispecific antibody, human IgG1, kappa, L234A L235A)
heavy 1: QVQLVQSGGGLVQPGGSLRLSCAASGFTFSSYWMYWVRQVPGKGLEWVSAIDTGGGRTYYADSVKGRFAISRVNAKNTMYLQMNSLRAEDTAVYYCARDEGGGTGWGVLKDWPYGLDAWGQGTLVTVSSASTKGPSVFPLAPSSKSTSGGTAALGCLVKDYFPEPVTVSWNSGALTSGVHTFPAVLQSSGLYSLSSVVTVPSSSLGTQTYICNVNHKPSNTKVDKRVEPKSCDKTHTCPPCPAPEAAGGPSVFLFPPKPKDTLYITREPEVTCVVVDVSHEDPEVKFNWYVDGVEVHNAKTKPREEQYNSTYRVVSVLTVLHQDWLNGKEYKCKVSNKALPAPIEKTISKAKGQPREPQVCTLPPSRDELTKNQVSLSCAVKGFYPSDIAVEWESNGQPENNYKTTPPVLDSDGSFFLVSKLTVDKSRWQQGNVFSCSVMHEALHNHYTQKSLSLSPGK
light 1: QPVLTQPLSVSVALGQTARITCGGNNIGSKNVHWYQQKPGQAPVLVIYRDSNRPSGIPERFSGSNSGNTATLTISRAQAGDEADYYCQVWDSSTAVFGTGTKLTVLQRTVAAPSVFIFPPSDEQLKSGTASVVCLLNNFYPREAKVQWKVDNALQSGNSQESVTEQDSKDSTYSLSSTLTLSKADYEKHKVYACEVTHQGLSSPVTKSFNRGEC
heavy 2: not shown
light 2: DIQMTQSPSSLSASVGDRVTITCRASSSVSYMHWYQQKPGKAPKPLIYAPSNLASGVPSRFSGSGSGTDFTLTISSLQPEDFATYYCQQWSFNPPTFGQGTKVEIKQRQVKPEAWLSSGPSPGPGRLQLVCHVSGFYPKPVWVMWMRGEQEQQGTQLGDILPNANWTWYLRATLDVADGEAAGLSCRVKHSSLEGQDIILYWRGSC
notes: Produced in CHO cells
B3: 02-009, bivalent bispecific chimeric antibody that specifically binds to CD20 and CSF1R (bispecific antibody, human IgG1, kappa, L234A L235A)
heavy 1: QVQLVESGGGLVRPGGSLRLSCAASEFTFDDYAMSWVRQAPGKGLEWVSAISWNGGSTNYADSVKGRFTISRDNAKNSLYLQMNSLRAEDTALYYCASTVEVAHRRLYKYLEVWGQGTLVTVSSASTKGPSVFPLAPSSKSTSGGTAALGCLVKDYFPEPVTVSWNSGALTSGVHTFPAVLQSSGLYSLSSVVTVPSSSLGTQTYICNVNHKPSNTKVDKRVEPKSCDKTHTCPPCPAPEAAGGPSVFLFPPKPKDTLYITREPEVTCVVVDVSHEDPEVKFNWYVDGVEVHNAKTKPREEQYNSTYRVVSVLTVLHQDWLNGKEYKCKVSNKALPAPIEKTISKAKGQPREPQVCTLPPSRDELTKNQVSLSCAVKGFYPSDIAVEWESNGQPENNYKTTPPVLDSDGSFFLVSKLTVDKSRWQQGNVFSCSVMHEALHNHYTQKSLSLSPGK
light 1: QAGLTQPPSVSVAPGQTARITCGGNNIGSKSVHWYQQKPGQAPVLVVYGDSDRPSGIPERFSGSNSGNTATLTISRVEAGDEADYYCQVWDISSDHVVFGGGTQLTVLRTVAAPSVFIFPPSDEQLKSGTASVVCLLNNFYPREAKVQWKVDNALQSGNSQESVTEQDSKDSTYSLSSTLTLSKADYEKHKVYACEVTHQGLSSPVTKSFNRGEC
heavy 2: not shown
light 2: B2 light 2
notes: Produced in CHO cells

What was measured:
[1] = biological target: T1, hisOX40, Tumor necrosis factor receptor superfamily member 4 (Homo sapiens) aa 26-210 (Homo sapiens, UniProt P43489 26-210); assay: BLI Octet RED 384; antibody on ProA sensor, antigen 30 ug/ml (1310 nM); response at end of association
T1 construct: range 26-210; The tag is put first only because the name begins with His; not shown: His tag as the name implies
T1 sequence (looked up): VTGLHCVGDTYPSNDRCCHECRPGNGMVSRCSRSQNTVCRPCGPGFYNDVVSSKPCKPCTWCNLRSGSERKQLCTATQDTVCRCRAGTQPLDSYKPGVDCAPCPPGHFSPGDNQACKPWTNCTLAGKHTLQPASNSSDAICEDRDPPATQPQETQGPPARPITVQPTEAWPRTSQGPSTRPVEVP
Method: (§1) Experimental study of nonspecific binding of bispecific chimeric antibodies to non-target antigens was performed on Forte Bio Octert RED 384. Protein A (ProA) biosensors (ForteBio) were immersed into a solution containing antibodies at a concentration of 10 μg/ml for 150 seconds to immobilize same. The baseline was recorded in a 1×KB solution for 30 seconds. The antibody-loaded sensors were then immersed into wells containing non-target antigens at a concentration of 30 μg/ml for 150 seconds. Complex dissociation was then recorded for 30 seconds.
(§2) The reference sensors went through all the steps as the sensors used to record analyte sensograms did, with the exception of the association step—at the association step, the sensors were immersed in a kinetic buffer solution without analyte (the reference sensor signals were measured in parallel with the recording of the main sensograms). The reference signal was subtracted from the signal received on sensors interacting with the analyte during the processing of sensograms.
(§3) Sensograms were processed using ForteBio Octet Data Analysisn 9.0 software. To report no non-specific interaction, the recorded signal level was checked at the end of the association step (the response parameter).

[2] = biological target: T2, extracellular domain of the human PD-1 protein (hPD1ex-H6F) (Homo sapiens, UniProt Q15116 21-170); assay: BLI Octet RED 384; antibody on ProA sensor, antigen 30 ug/ml (1456 nM); response at end of association
T2 construct: Molecular weight 20.6 kDa; made in CHO cells; also called hPDlex-H6F; not shown: C-terminal His and FLAG tags
T2 sequence (Q15116 21-170 limits assumed, form in doubt): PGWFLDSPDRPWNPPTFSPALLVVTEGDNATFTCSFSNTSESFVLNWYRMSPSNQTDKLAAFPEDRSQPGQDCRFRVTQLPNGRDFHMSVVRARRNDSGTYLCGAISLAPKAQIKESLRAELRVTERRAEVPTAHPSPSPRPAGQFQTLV
Method: as §1, §2, §3

[3] = biological target: T3, C-Avi-His-TEVs-HSA_hBCMA, Tumor necrosis factor receptor superfamily member 17 (Homo sapiens) aa 1-54 (Homo sapiens, UniProt Q02223 1-54); assay: BLI Octet RED 384; antibody on ProA sensor, antigen 30 ug/ml (391.2 nM); response at end of association
T3 construct: range 1-54; not shown: Avi, His, TEV site and HSA parts as the name implies
T3 sequence (looked up): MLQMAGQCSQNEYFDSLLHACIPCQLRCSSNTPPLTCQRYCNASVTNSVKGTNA
Method: as §1, §2, §3

[4] = biological target: T4, Her3-H6F, Receptor tyrosine-protein kinase erbB-3 (Homo sapiens) aa 21-643 (Homo sapiens, UniProt P21860 21-643); assay: BLI Octet RED 384; antibody on ProA sensor, antigen 30 ug/ml (420.8 nM); response at end of association
T4 construct: not shown: His and FLAG tags implied by the name 'H6F'
T4 sequence (P21860 21-643 limits assumed): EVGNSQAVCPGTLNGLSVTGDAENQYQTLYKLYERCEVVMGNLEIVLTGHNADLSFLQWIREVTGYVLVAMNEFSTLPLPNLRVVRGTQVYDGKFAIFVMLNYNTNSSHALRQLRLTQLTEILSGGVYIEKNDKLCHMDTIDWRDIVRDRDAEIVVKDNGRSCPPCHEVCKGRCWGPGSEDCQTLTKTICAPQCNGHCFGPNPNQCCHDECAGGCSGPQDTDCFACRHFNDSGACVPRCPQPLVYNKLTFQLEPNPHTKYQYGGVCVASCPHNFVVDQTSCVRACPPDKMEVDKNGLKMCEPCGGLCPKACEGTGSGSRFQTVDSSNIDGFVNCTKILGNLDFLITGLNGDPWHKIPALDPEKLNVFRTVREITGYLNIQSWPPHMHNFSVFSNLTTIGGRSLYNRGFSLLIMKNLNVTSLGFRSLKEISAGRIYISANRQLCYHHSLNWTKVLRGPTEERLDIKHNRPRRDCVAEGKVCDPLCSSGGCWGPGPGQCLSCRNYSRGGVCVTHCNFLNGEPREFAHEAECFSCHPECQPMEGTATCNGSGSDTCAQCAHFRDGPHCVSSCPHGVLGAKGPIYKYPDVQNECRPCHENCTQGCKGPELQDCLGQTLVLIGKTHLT
Method: as §1, §2, §3

[5] = biological target: T5, extracellular domain of the human CSF1R protein (hCSF1R_His) (Homo sapiens, UniProt P07333 20-512); assay: BLI Octet RED 384; antibody on ProA sensor, antigen 30 ug/ml (522.5 nM); response at end of association
T5 construct: range 20-512; Molecular weight 57.4 kDa; made in CHO cells; also called hCSF1_His; not shown: C-terminal His and FLAG tags
T5 sequence (P07333 20-512 limits assumed): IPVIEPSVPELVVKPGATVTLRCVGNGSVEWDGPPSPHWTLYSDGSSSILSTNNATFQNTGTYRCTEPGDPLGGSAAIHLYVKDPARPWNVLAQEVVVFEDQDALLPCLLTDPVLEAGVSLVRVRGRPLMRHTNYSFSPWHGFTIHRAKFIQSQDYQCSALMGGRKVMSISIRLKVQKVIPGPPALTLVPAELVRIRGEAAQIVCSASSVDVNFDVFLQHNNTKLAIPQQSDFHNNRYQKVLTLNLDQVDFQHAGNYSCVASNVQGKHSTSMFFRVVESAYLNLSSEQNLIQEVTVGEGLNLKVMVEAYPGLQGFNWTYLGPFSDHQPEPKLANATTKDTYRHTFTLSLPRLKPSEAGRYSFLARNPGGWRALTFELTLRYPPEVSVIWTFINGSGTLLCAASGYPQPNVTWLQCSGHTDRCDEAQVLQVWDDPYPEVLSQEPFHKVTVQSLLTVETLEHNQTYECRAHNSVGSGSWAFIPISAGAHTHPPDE
Method: as §1, §2, §3

[6] = biological target: T6, Macaca CSF1R_C-His, Macrophage colony-stimulating factor 1 receptor (Macaca mulatta) aa 20-513 (Macaca mulatta); assay: BLI Octet RED 384; antibody on ProA sensor, antigen 30 ug/ml (534.8 nM); response at end of association
T6 construct: range 20-513
Method: as §1, §2, §3

[7] = biological target: T7, IL5R-His, Interleukin-5 receptor subunit alpha (Homo sapiens) aa 22-342 (Homo sapiens, UniProt Q01344 22-342); assay: BLI Octet RED 384; antibody on ProA sensor, antigen 30 ug/ml (757.6 nM); response at end of association
T7 construct: not shown: His tag as the name implies
T7 sequence (looked up): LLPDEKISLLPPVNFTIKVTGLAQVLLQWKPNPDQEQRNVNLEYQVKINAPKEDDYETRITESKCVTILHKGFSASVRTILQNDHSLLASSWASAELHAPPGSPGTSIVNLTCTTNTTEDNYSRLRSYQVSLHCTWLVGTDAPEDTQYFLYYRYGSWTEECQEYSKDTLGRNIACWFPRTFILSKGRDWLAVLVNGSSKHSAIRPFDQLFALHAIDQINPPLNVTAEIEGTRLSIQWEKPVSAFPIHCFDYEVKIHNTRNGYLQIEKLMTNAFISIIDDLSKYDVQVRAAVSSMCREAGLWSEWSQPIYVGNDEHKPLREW
Method: as §1, §2, §3

[8] = biological target: T8, hCD38-Avi, ADP-ribosyl cyclase/cyclic ADP-ribose hydrolase 1 (Homo sapiens) aa 43-300 (Homo sapiens, UniProt P28907 43-300); assay: BLI Octet RED 384; antibody on ProA sensor, antigen 30 ug/ml (854.7 nM); response at end of association
T8 construct: range 43-300; not shown: Avi tag as the name implies
T8 sequence (looked up): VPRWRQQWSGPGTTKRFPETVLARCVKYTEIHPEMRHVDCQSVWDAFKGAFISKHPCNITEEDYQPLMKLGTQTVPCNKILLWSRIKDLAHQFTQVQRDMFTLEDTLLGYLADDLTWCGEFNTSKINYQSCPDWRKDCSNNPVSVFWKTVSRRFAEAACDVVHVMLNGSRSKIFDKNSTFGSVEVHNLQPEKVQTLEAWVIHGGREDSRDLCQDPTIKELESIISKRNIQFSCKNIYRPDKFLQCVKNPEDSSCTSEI
Method: as §1, §2, §3

Binder | Signal level (nm) [1] [nm] | Signal level (nm) [2] [nm] | Signal level (nm) [3] [nm] | Signal level (nm) [4] [nm] | Signal level (nm) [5] [nm] | Signal level (nm) [6] [nm] | Signal level (nm) [7] [nm] | Signal level (nm) [8] [nm]
B1 | -0.0169 | 0.139 | 0.0021 | -0.0128 | 0.0034 | -0.0084 | 0.0225 | 0.0072
B2 | 0.0103 | 0.35 | 0.0108 | 0.0217 | 0.0103 | 0.0236 | 0.0249 | 0.004
B3 | -0.0158 | -0.0059 | -0.0154 | -0.0161 | 0.564 | 0.531 | -0.0064 | -0.0089
